Test results published in patent US20240116985A1 (published 2024).
Starred links: 1 amine or outer side, 2 acyl side, 3 side chain; linkers in the order of their positions; H or OH if unused. Positions of bridges follow the written chain, without caps; N, C: chain ends. Non-standard residues stand in square brackets, D forms with d. Primed or numbered codes have the meaning given here. PyrS2″ = (S)-3-amino-1-((pent-4-en-1-yloxy)carbonyl)pyrrolidine-3-carboxylic acid (stapling residue), C=CCCCOC(=O)N1CC[C@@](N[*:1])(C(=O)[*:2])C1; B5(4) = 2,2-bis(4-pentenyl)glycine = 2-amino-2-(pent-4-en-1-yl)hept-6-enoic acid (stitching residue), C=CCCCC(CCCC=C)(N[*:1])C(=O)[*:2]; PyrS2 = (S)-3-amino-1-((pent-4-en-1-yloxy)carbonyl)pyrrolidine-3-carboxylic acid, C=CCCCOC(=O)N1CC[C@@](N[*:1])(C(=O)[*:2])C1; B5(19) = 2-amino-2-(pent-4-en-1-yl)hept-6-enoic acid (bis(4-pentenyl)glycine), C=CCCCC(CCCC=C)(N[*:1])C(=O)[*:2]; Phe(4-CN) = N#Cc1ccc(C[C@H](N)C(=O)O)cc1; Phe(2-Cl) = N[C@@H](Cc1ccccc1Cl)C(=O)O; Bta = N[C@@H](Cc1csc2ccccc12)C(=O)O; αAllylPro = C=CC[C@@]1(C(=O)O)CCCN1; S8 = C=CCCCCCC[C@](C)(N)C(=O)O

T1: beta-catenin (Homo sapiens (Human), UniProt P35222 1-781)
T1 construct: The FP protocol says full-length beta-Catenin (Uniprot ID P35222); also called full-length beta-Catenin; bCat
T1 sequence: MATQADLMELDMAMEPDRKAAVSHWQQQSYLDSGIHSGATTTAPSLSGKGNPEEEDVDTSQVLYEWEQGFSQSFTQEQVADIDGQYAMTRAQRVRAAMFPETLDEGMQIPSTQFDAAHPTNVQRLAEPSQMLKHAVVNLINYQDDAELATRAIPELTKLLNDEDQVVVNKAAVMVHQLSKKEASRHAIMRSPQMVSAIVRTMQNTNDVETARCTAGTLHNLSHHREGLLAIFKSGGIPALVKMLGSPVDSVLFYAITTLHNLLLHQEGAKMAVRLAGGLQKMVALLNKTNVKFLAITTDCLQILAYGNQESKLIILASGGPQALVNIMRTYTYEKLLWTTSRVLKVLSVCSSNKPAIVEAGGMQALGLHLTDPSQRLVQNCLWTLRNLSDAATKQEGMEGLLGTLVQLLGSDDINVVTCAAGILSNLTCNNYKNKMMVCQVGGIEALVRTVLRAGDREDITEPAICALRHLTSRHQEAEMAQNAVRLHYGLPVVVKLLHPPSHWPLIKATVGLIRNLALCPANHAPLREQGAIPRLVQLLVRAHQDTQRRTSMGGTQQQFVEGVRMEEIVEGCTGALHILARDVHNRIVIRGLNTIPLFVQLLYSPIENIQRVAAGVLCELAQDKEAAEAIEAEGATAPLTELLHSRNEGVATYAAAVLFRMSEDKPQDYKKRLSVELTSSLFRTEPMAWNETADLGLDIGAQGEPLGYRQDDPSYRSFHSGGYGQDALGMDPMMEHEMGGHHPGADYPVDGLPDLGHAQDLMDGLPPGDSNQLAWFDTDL

T2: full-length beta-Catenin (Uniprot ID P35222) (Homo sapiens (Human), UniProt P35222 1-781)
T2 construct: Tags are not described; Also used here as the target of the DLD1 TCF reporter read-out (endogenous beta-catenin in DLD1 cells); also called bCat; B-Catenin
T2 sequence: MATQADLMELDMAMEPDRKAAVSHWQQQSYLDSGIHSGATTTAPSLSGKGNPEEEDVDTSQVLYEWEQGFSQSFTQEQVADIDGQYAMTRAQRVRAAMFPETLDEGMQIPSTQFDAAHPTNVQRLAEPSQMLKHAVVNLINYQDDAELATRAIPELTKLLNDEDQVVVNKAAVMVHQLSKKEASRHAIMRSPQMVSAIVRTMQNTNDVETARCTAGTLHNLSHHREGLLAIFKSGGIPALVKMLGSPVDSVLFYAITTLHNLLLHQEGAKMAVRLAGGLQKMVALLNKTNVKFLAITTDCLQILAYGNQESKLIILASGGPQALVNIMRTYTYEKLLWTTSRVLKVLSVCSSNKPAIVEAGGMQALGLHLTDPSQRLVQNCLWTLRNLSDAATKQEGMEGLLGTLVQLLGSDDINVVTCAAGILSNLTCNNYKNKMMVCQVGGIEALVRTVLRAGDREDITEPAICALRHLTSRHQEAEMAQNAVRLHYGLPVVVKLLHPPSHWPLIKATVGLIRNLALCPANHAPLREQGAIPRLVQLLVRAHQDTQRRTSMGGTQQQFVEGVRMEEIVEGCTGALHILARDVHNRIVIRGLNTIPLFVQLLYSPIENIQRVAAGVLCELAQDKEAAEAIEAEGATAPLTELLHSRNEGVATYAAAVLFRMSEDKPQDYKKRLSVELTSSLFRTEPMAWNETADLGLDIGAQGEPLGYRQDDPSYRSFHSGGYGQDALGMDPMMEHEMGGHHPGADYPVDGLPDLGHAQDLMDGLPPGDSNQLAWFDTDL

T3: full-length beta-Catenin (Uniprot ID P35222) (Homo sapiens (Human), UniProt P35222 1-781)
T3 construct: also called bCat; B-Catenin
T3 sequence: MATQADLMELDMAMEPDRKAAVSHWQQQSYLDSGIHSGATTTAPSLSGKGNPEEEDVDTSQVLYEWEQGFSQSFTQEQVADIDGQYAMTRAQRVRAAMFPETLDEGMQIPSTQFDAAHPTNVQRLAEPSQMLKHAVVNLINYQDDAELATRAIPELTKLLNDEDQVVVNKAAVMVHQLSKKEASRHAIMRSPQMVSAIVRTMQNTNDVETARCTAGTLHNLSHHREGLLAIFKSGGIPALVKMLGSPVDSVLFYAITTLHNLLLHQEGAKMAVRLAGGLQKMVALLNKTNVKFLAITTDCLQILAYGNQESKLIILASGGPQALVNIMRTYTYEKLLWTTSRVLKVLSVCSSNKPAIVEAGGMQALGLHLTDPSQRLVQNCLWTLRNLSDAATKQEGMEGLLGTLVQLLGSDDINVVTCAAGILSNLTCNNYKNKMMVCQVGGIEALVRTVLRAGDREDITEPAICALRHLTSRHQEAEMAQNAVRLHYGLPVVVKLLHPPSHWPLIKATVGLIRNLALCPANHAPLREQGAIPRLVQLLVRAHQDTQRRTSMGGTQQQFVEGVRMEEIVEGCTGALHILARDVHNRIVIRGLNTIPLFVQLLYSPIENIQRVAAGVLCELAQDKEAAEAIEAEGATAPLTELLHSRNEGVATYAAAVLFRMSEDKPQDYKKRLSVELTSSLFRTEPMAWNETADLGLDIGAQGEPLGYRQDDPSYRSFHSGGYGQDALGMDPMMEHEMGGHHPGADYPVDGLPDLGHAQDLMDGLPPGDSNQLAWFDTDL


Biological target: T1, beta-catenin
Assay: fluorescence polarization competition; full-length beta-catenin with 5FAM-TCF4(10-53) probe as competitor
Method in brief: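 Plate incubated 60 minutes at 20° C. protected from light before reading. Concentrations given are final.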

Binder	EC50
Ac-[αAllylPro]DS[B5(4)]DDAAFL[PyrS2][Phe(2-Cl)][Bta]L-NH2 (staple 1-4, 4-11, stapled peptide) [I-1423]	0.389 µM
Ac-[αAllylPro]DT[B5(4)]DDAAFL[PyrS2][Phe(2-Cl)][Bta]L-NH2 (staple 1-4, 4-11, stapled peptide) [I-1424]	0.235 µM
Ac-[αAllylPro]DL[B5(4)]DDAAFL[PyrS2″][Phe(2-Cl)][Bta]L-NH2 (staple 1-4, 4-11; also: staple isomer composition of later HPLC peak, stapled peptide) [I-1419]	0.152 µM

Biological target: T2, full-length beta-Catenin (Uniprot ID …)
Assay: fluorescence polarization competition; full-length beta-catenin with 5FAM-TCF4(10-53) probe, peptide titrated
Procedure: (§1) The plate was incubated protected from light for 60 minutes at 20° C. prior to read. Reads were performed on a CLARIOstar plate reader (BMG Labtech) in duplicate, and data were fitted to a 1:1 binding model with hill slope using an in-house script. All provided concentrations are final concentrations.

Binder	IC50
Ac-[αAllylPro]DF[B5(4)]DDAAFT[PyrS2″][Phe(2-Cl)][Bta]S-NH2 (staple 1-4, 4-11, also called Ac-PL3-Asp-Phe-B5-Asp-Asp-Ala-Ala-Phe-Thr-PyrS2-2C1F-BztA-Ser-NH2) [I-1049]	0.006 µM

Biological target: T3, full-length beta-Catenin (Uniprot ID …)
Assay: fluorescence polarization competition; peptide titrated against 10 nM full-length beta-catenin + 10 nM 5FAM-TCF4(10-53)
Procedure: as §1

Binder	IC50
XDAXDDAAAVXFWQ (not fully specified; N-terminal Ac; PL3 at 1, B5 at 4, S8 at 11 (staples 1-4 and 4-11 by olefin metathesis); C-terminal NH2, Stapled peptide; also called Ac-PL3-Asp-Ala-B5-Asp-Asp-Ala-Ala-Ala-Val-S8-Phe-Trp-Gln-NH2) [I-354]	5 µM
XDAXDDAAFVXAWQ (not fully specified; N-terminal Ac; PL3 at 1, B5 at 4, S8 at 11 (staples 1-4 and 4-11 by olefin metathesis); C-terminal NH2, Stapled peptide; also called Ac-PL3-Asp-Ala-B5-Asp-Asp-Ala-Ala-Phe-Val-S8-Ala-Trp-Gln-NH2) [I-355]	5 µM
XDAXDDAAFVXAWQ (not fully specified; N-terminal Ac; PL3 at 1, B5 at 4, S8 at 11 (staples 1-4 and 4-11 by olefin metathesis); C-terminal NH2, Stapled peptide; also called Ac-PL3-Asp-Ala-B5-Asp-Asp-Ala-Ala-Phe-Val-S8-Ala-Trp-Gln-NH2) [I-356]	5 µM
XDAXDDAAFVXFAQ (not fully specified; N-terminal Ac; PL3 at 1, B5 at 4, S8 at 11 (staples 1-4 and 4-11 by olefin metathesis); C-terminal NH2, Stapled peptide; also called Ac-PL3-Asp-Ala-B5-Asp-Asp-Ala-Ala-Phe-Val-S8-Phe-Ala-Gln-NH2) [I-357]	5 µM
XDAXDDAAFVXFAQ (not fully specified; N-terminal Ac; PL3 at 1, B5 at 4, S8 at 11 (staples 1-4 and 4-11 by olefin metathesis); C-terminal NH2, Stapled peptide; also called Ac-PL3-Asp-Ala-B5-Asp-Asp-Ala-Ala-Phe-Val-S8-Phe-Ala-Gln-NH2) [I-358]	5 µM
Ac-[αAllylPro]DA[B5(19)]DDAAFV[S8][Phe(4-CN)][Bta]Q-NH2 (staple 1-4, 4-11, Stapled peptide; also called Ac-PL3-Asp-Ala-B5-Asp-Asp-Ala-Ala-Phe-Val-S8-4CNF-BztA-Gln-NH2) [I-359]	5 µM
